T1: GST-HBI1 (Arabidopsis thaliana, UniProt Q9ZPW3 1-337)
T1 sequence: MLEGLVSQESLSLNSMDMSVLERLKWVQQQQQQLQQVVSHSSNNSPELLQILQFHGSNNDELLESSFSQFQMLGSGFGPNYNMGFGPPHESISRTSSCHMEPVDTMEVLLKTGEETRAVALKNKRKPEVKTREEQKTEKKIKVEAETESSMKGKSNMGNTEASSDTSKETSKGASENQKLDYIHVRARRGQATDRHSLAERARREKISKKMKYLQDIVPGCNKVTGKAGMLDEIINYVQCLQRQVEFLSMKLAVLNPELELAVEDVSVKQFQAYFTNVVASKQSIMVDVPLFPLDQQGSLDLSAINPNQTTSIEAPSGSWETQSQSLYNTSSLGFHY

T2: GST-BEE2 (Arabidopsis thaliana, UniProt Q93VJ4 1-304)
T2 sequence: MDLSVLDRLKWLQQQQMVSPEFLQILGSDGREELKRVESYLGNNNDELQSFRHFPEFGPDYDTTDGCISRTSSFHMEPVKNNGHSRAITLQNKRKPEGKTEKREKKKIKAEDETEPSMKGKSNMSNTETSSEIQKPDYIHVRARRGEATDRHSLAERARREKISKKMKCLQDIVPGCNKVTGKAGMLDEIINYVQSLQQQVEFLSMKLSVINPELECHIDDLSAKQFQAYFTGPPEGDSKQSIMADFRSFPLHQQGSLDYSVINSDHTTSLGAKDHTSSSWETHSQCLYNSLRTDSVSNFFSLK

B1: GASA6 promoter Probe 2 (dsDNA)
DNA 1: GTCTCCCATGTGAGTGCACATGGAGTTATG
DNA 2: CATAACTCCATGTGCACTCACATGGGAGAC
B2: GASA6 promoter Probe 1 (dsDNA)
DNA 1: CAATTTTTAATCACAAATGCTATTTTATTGGACGACC
DNA 2: GGTCGTCCAATAAAATAGCATTTGTGATTAAAAATTG

Legend:
GST-HBI1 = molecular target: T1, GST-HBI1; experiment: EMSA; 1000x cold probe eliminated the shift; 10 mM Tris pH 7.5, 50 mM KCl, 5 mM MgCl2, 1 mM DTT, 2.5% glycerol, 0.5% NP-40, 50 ng poly(dI-dC), 25 fmol probe in 20 ul, room temperature, 45 min; 6% native PAGE; details: protein: recombinant; tags: GST (N-term, pGEX4T1); chain copies: 2; label: 5' biotin; blunt
GST-BEE2 = molecular target: T2, GST-BEE2; experiment: as above; details: protein: recombinant; tags: GST (N-term, pGEX4T1); chain copies: 2; label: 5' biotin; blunt

Row | Binder | binding result (GST-HBI1) | binding result (GST-BEE2)
1 | B1 | binds | binds
2 | B2 | binds | binds
